Experimental data taken from IntAct's records for PubMed 16228008.

B1: E3 ubiquitin-protein ligase CBL-B (Homo sapiens), Q13191-1 (parent)
chain: MANSMNGRNPGGRGGNPRKGRILGIIDAIQDAVGPPKQAAADRRTVEKTWKLMDKVVRLCQNPKLQLKNSPPYILDILPDTYQHLRLILSKYDDNQKLAQLSENEYFKIYIDSLMKKSKRAIRLFKEGKERMYEEQSQDRRNLTKLSLIFSHMLAEIKAIFPNGQFQGDNFRITKADAAEFWRKFFGDKTIVPWKVFRQCLHEVHQISSGLEAMALKSTIDLTCNDYISVFEFDIFTRLFQPWGSILRNWNFLAVTHPGYMAFLTYDEVKARLQKYSTKPGSYIFRLSCTRLGQWAIGYVTGDGNILQTIPHNKPLFQALIDGSREGFYLYPDGRSYNPDLTGLCEPTPHDHIKVTQEQYELYCEMGSTFQLCKICAENDKDVKIEPCGHLMCTSCLTAWQESDGQGCPFCRCEIKGTEPIIVDPFDPRDEGSRCCSIIDPFGMPMLDLDDDDDREESLMMNRLANVRKCTDRQNSPVTSPGSSPLAQRRKPQPDPLQIPHLSLPPVPPRLDLIQKGIVRSPCGSPTGSPKSSPCMVRKQDKPLPAPPPPLRDPPPPPPERPPPIPPDNRLSRHIHHVESVPSRDPPMPLEAWCPRDVFGTNQLVGCRLLGEGSPKPGITASSNVNGRHSRVGSDPVLMRKHRRHDLPLEGAKVFSNGHLGSEEYDVPPRLSPPPPVTTLLPSIKCTGPLANSLSEKTRDPVEEDDDEYKIPSSHPVSLNSQPSHCHNVKPPVRSCDNGHCMLNGTHGPSSEKKSNIPDLSIYLKGDVFDSASDPVPLPPARPPTRDNPKHGSSLNRTPSDYDLLIPPLGEDAFDALPPSLPPPPPPARHSLIEHSKPPGSSSRPSSGQDLFLLPSDPFVDLASGQVPLPPARRLPGENVKTNRTSQDYDQLPSCSDGSQAPARPPKPRPRRTAPEIHHRKPHGPEAALENVDAKIAKLMGEGYAFEEVKRALEIAQNNVEVARSILREFAFPPPVSPRLNL
partner: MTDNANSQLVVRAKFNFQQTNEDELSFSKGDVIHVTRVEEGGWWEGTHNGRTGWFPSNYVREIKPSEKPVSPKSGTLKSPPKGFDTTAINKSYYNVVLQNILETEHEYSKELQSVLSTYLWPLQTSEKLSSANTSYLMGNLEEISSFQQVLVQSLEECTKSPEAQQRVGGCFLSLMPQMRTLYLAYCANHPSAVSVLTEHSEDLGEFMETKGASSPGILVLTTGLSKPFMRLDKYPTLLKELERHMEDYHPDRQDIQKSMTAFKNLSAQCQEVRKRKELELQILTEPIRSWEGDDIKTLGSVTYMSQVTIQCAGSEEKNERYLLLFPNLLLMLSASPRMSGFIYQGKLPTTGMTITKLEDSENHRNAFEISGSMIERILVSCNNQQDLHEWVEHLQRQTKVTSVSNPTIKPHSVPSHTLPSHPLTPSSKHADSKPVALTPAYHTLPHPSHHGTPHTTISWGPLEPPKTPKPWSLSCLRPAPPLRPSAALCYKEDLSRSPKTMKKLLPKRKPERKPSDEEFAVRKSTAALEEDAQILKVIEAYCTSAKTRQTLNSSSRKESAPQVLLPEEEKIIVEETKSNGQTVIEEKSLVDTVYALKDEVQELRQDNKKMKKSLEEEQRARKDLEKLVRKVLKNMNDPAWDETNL

Variants of: B1
Conditions: with arhg7_rat Arhgef7, O55043

| effect of a mutation on the interaction | Variant |
| --- | --- |
| decreasing interaction strength | R904A |
